In the supplement of paper PMC9170038:

How the values were obtained:
MS2 coat protein [1] = test: apparent KD of MS2 coat protein, switch ON state; designed switch direction (-1 OFF switch, 1 ON switch): -1; higher = weaker reporter binding; details: FMN input: 0 or 200 uM; Eterna round: R93 (includes R88 designs)
Summary of the method: (§1)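 Normalised binding curves from single clusters were fitted, and the median fit for each design is given as apparent KD. The clusters held designed RNA switches transcribed on-chip from Illumina sequencing clusters. These were titrated with SNAP-549-labelled MS2 coat protein (twofold steps from 0.7 or 1.5 nM to 3 µM, 0.8–1.5 h to 10–20 min per step) in 100 mM Tris-HCl pH 7.5, 80 mM KCl, 4 mM MgCl2, without or with constant ligand.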

MS2 coat protein [2] = test: apparent KD of MS2 coat protein, switch OFF state (with FMN for OFF switches, without FMN for ON switches); designed switch direction (-1 OFF switch, 1 ON switch): -1; higher = weaker reporter binding; details: FMN input: 0 or 200 uM; Eterna round: R93 (includes R88 designs)
Summary of the method: as §1

Row | Sequence | apparent KD of MS2 coat protein (MS2 coat protein [1]) | apparent KD of MS2 coat protein (MS2 coat protein [2])
1 | AAGAAGCGAGGAUAUACAUGAAAGAAAGAAAAGAAAAGAAAACAUGAGGAUCACCCAUGUAGAAGGCGCAAGAA [EteRNA is fun!] | 21.4 nM | 28.2 nM
2 | AAGAAGCGAGGAUAUACAUGAGGAUCACCCAUGUAAAAGAAAGAAGGGAAAGAGAAAAGUAGAAGGCGCAAGAA [Hedjkheperre-setpenre Takelot II] | 70.7 nM | 109 nM
3 | AAGAAGGAAGGAUAUACAUGAGGAUCACCCAUGUAAAAGAAAGAAAGGGAAAAGAAAAGUAGAAGGUCCAAGAA [Aakheperre Setepenre Osorkon] | 25.4 nM | 38.7 nM
4 | AAGAAGGUAGGAUAUACUAAAGAAAUAAAAAUAAAUAAAGAACAUGAGGAUCACCCAUGUAGAAGGGCCAAGAA [Merkheperre] | 54.4 nM | 50.8 nM
5 | AAGAAGUAAGGAUAUCGGAGAGAACAAGAAAGUGAAGAAUACGAGAAGGUACAUGAGGAUCACCCAUGUAAAGA [EXC - 4] | 26.9 nM | 19 nM
6 | AAGAAGUCAGGAUAUCGAAGACUGUCGAAAAGACAGUCGAACGAGAAGGGACAUGAGGAUCACCCAUGUGGAAA [Marsurpial 65% 7] | 56.3 nM | 112 nM
7 | AAGAAGUGAGGAUAUACAAAAUAAAAGAAAAGAAAGAAAGAACAUGAGGAUCACCCAUGUAGAAGGCGCAAGAA [Merhotepre Ini] | 24.5 nM | 24.9 nM
8 | AAGAAUAGAGGAUAUACAAGGAAGAAAGAAAAGAAAAGAAAACAUGAGGAUCACCCAUGUAGAAGGCUAUAGAA [EteRNA is fun!] | 30.9 nM | 26.2 nM
9 | AAGAGUAGAGGAUAUACAAAGGGAGAGUCGAAAGACUCAAAACAUGAGGAUCACCCAUGUAGAAGGCUACUCAA [Hyphema Seclusion Mod 62% 7] | 213 nM | 746 nM
10 | AAGAGUAGAGGAUAUACAUAAAAAGAGUCGAAAGACUCGGGACAUGAGGAUCACCCAUGUAGAAGGCUACUCAA [Hyphema Seclusion Mod 62% 4] | 98.6 nM | 406 nM
11 | AAGAUGUGAGGAUAUGCUGCUCGUCACAAAAGUGAUGAGUAGCAGAAGGUACAUGAGGAUCACCCAUGUAAAGA [JL eternac mod 7] | 32.4 nM | 20.9 nM
12 | AAGGAUAGAGGAUAUACAUAGAUACAGAUUCAUGUAGAACUACAUGAGGAUCACCCAUGUAGAAGGCUAUCAUA [AJ 32] | 27.9 nM | 89.1 nM
13 | AAGGGACAUGAGGAUCACCCAUGUCAGGAUAUCGGAAAAGGAAAAAAAAAAAAGAAGACGAGAAGGGACACCAA | 28.6 nM | 26.8 nM
14 | AAGGUAUAAGGAUAUGCAUAGAUACAGACACAUGUUCAAGUACAUGAGGAUCACCCAUGUAGAAGGUAUAUAUA [AJ 12] | 32.2 nM | 26 nM
15 | AAGUCGUGAGGAUAUACAUGGAUAUACAUUCAUGUGGACCUACAUGAGGAUCACCCAUGUAGAAGGCACGAAUA [AJ 49] | 35.2 nM | 53.5 nM
16 | AAUAAACAUGAGGAUCACCCAUGUGAGGAUAUGGUAUUAUUAGGACAGUAAUGAUAUACCAGAAGGCACAAAUA [JR_Exc001_Sub1104] | 36.9 nM | 53.5 nM
17 | AAUAAGUGAGGAUAUGUGAAUAGUAGAUAAGAUUCCCUAAAACAGAAGGCACAUGAGGAUCACCCAUGUAAAUA [JR_Exc004_Sub008] | 26.2 nM | 24.1 nM
18 | AAUAGUGAAGGAUAUACUGGAGGAGUACGAUAAAAGAAAGAACAUGAGGAUCACCCAUGUAGAAGGUCAGAAGU [JR_Exc002_Sub1227] | 22.9 nM | 24.1 nM
19 | ACAAAGUGAGGAUAUGCUAUCGUACAAUAUAGUUAUCGUAUGCAGAAGGCACAUGAGGAUCACCCAUGUAAGAA [Ex 4 Tesla 9] | 40.7 nM | 36.7 nM
20 | ACAAGAUCAGGAUAUACAUGAGGAUCACCCAUGUAUAUCAAAAAGGGACUUACUUAAUGUAGAAGGGAUCAUGU [EX3 280: Random 16] | 12.7 nM | 13.9 nM
21 | ACGUACUCAGGAUAUACGAACAUGUCAAAAGACGUGAAGGGACAUGAGGAUCACCCAUGUAGAAGGGAGUACGA [Mat - Exclusion 2 - JL mod - D6] | 33.6 nM | 148 nM
22 | ACGUCGGGAGGAUAUACAUGAGGAUCACCCAUGUAAAGCGGGAAAGACGUUUAGUCGAGUAGAAGGCCUGAAGU [JR_Exc003_Sub1709] | 26.1 nM | 45.5 nM
23 | ACUAAACGAGGAUAUACUAACGAACCUCAAACAUAGAUAAGACAUGAGGAUCACCCAUGUAGAAGGCGUAGACU [JR_Exc002_Sub008] | 74.6 nM | 59.7 nM

Row | Sequence | apparent KD of MS2 coat protein (MS2 coat protein [1]) | apparent KD of MS2 coat protein (MS2 coat protein [2])
24 | ACUAAUGAAGGAUAUACAAACAAAAAAAAAACAACAAACAAACAUGAGGAUCACCCAUGUAGAAGGUCAAAAAU [JR_Exc002_Sub1202] | 22.2 nM | 17.8 nM
25 | AGAAAACAUGAGGAUCACCCAUGUGAGGAUAUCGAAAAGAAAAGAAAAGAAAGAAGAAUGAGAAGGCACAAGAA [Khaba] | 29.5 nM | 28.1 nM
26 | AGAAAACAUGAGGAUCACCCAUGUGAGGAUAUCGAUGUCCAAAAAAAAGUGCGGGACUCGAGAAGGCACUUGGG | 38.9 nM | 33.7 nM
27 | AGAAAACAUGAGGAUCACCCAUGUGAGGAUAUCUAAAAGAAAAGAAAAGAAAGAAGAAGGAGAAGGCACAAGAA [Sanakhte] | 37.4 nM | 29.4 nM
28 | AGAAAGUCAGGAUAUACGAAAAAAAAGGGAAACAACAAGGGACAUGAGGAUCACCCAUGUAGAAGGGACAAGAA [Diamond 98] | 92.8 nM | 140 nM
29 | AGAAAGUGAGGAUAUACAGAUAAAAAAACGAAAAAAAAUCUGUAGAAGGCACAUGAGGAUCACCCAUGUAAAGA [Mat - Exclusion 4 - Mayanna - D108] | 37.9 nM | 37.1 nM
30 | AGAAAUGUAGGAUAUACAUGAGGAUCACCCAUGUGGGAGGAGGAGCAAACAAGACGAGGUAGAAGGACAACGAC [JR_Exc003-Sub903] | 73.5 nM | 79.2 nM
31 | AGCAAACAUGAGGAUCACCCAUGUUAGGAUAUGAACGAAAUAAAAUAAAAAUAAAAGUUCAGAAGGGACGAGCA [Mat - Exclusion 1 - Eli mod - D27] | 22.4 nM | 37.1 nM
32 | AGCAAGUUAGGAUAUGCGAAGUCAGGACACACACUGACGAAGCAGAAGGAACAUGAGGAUCACCCAUGUAAGCA [JR_Exclusion-4 65% 4] | 22 nM | 16.6 nM
33 | AGCACGGUAGGAUAUACGAACAAAACGGGAGAACUAAAGGGACAUGAGGAUCACCCAUGUAGAAGGACCAAGCA [Diamond 90] | 42 nM | 119 nM
34 | AGCACGUCAGGAUAUACGAAAAAAAAGGGAAACAACAAGGGACAUGAGGAUCACCCAUGUAGAAGGGACUAGCA [Diamond 97] | 49.4 nM | 44.3 nM
35 | AGCUAGUCAGGAUAUACGAAAAUGACAGAAGACGUAAGGGAACAUGAGGAUCACCCAUGUAGAAGGGACUAGCA [Diamond 42] | 26.6 nM | 67.7 nM
36 | AGCUAGUCAGGAUAUACGAACAUGUCAAAAGACGUGAACGGACAUGAGGAUCACCCAUGUAGAAGGGACUAGCA [Diamond 5] | 16.2 nM | 17.5 nM
37 | AGCUAGUCAGGAUAUACGAACAUGUCAAAAGACGUGAGGGAACAUGAGGAUCACCCAUGUAGAAGGGACUAGCA [Moving G segment in JL's topscorer (74%)] | 36.6 nM | 37.5 nM
38 | AGCUAGUCAGGAUAUACGAGAAAGAAAGAAGACGUGAAGGGACAUGAGGAUCACCCAUGUAGAAGGGACUAGCA [Diamond 26] | 30.3 nM | 67.1 nM
39 | AGCUAGUCAGGAUAUACGAGAAUGACAAAAGACGUGAAGGGACAUGAGGAUCACCCAUGUAGAAGGGACUAGCA [Diamond 24] | 39.2 nM | 117 nM
40 | AGCUAGUGAGGAUAUACGAACAAGUCAACGGACUGUAAGGGACAUGAGGAUCACCCAUGUAGAAGGCACUAGCA [Diamond 58] | 29.4 nM | 148 nM
41 | AGCUAGUGAGGAUAUACGAACAUGUCAAAAGACGUGAAGAAACAUGAGGAUCACCCAUGUAGAAGGCACUAGCA [Mat - Exclusion 2 - JL-Eli mod - D55] | 15.5 nM | 14.9 nM
42 | AGGAGACAUGAGGAUCACCCAUGUUAGGAUAUGAACGAAAUAAAAUAAAAAUAAAAGUUCAGAAGGAACGAAAA [Mat - Exclusion 1 - Eli mod - D10] | 34.6 nM | 56.6 nM
43 | AGGGAGUAAGGAUAUGCAUAUAAUGAAGAGAAAGAAAAGAAGCAGAAGGUACAUGAGGAUCACCCAUGUAAAAA [milkweed 2] | 28.4 nM | 22.7 nM
44 | AGUAGUACAGGAUAUACAUGAGGAUCACCCAUGUGAGAAUUAAGUGGCGUACCACAAAGUAGAAGGGUACUACA [Mat - Exclusion 3 - JL mod - D38] | 40.1 nM | 211 nM
45 | AGUCGGCGAGGAUAUACAUGAGGAUCACCCAUGUGAGAGAAAAAAGUGAGUUAGACAAGUAGAAGGCGCUGACA [JL Lego Mod 7] | 44.1 nM | 172 nM
46 | AGUGAGUGAGGAUAUGCUAGAAGAAUAAAAGAAAUAACGUAGCAGAAGGCACAUGAGGAUCACCCAUGUACACA [May 66] | 25.6 nM | 22.5 nM
